Laboratory results reported in publication PMC11705640, “Tubulointerstitial nephritis antigen-like 1 promotes the progression of liver fibrosis after HCV eradication with direct-acting antivirals” (International Journal of Biological Sciences, 2025).

Molecular target: T1, recombinant human TINAGL1 protein (tubulointerstitial nephritis antigen-like 1), C-6×His (human, UniProt Q9GZM7 22-467)
T1 construct: tubulointerstitial nephritis antigen-like 1 (TINAGL1), human, recombinant; Bought protein; Held on the Ni-NTA chip by its C-terminal His tag; also called rhTINAGL1; source: bought: Novoprotein (Cat# CB22); not shown: His6, C-terminal, kept
T1 sequence (looked up): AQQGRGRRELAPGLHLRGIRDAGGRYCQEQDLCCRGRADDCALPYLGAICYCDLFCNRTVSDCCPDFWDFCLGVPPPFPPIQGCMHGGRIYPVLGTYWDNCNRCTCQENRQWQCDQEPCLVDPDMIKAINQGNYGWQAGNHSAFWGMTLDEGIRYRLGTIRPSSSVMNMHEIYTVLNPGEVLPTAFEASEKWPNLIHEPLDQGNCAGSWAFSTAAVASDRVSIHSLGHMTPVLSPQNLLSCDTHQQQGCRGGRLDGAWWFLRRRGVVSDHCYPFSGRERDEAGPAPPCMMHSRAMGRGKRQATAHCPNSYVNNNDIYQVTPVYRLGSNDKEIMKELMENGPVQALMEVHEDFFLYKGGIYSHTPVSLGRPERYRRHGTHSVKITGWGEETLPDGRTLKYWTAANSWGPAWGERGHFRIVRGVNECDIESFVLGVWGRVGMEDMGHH
Experiment: SPR; rhTINAGL1 (C-6×His) immobilised on Ni-NTA chip (Reichert 4SPR, 40 mM nickel sulfate); dilution series of rhPDGF-BB in PBST injected at 62.5 μL/min; association 4 min, dissociation 5 min; TraceDrawer v1.8.1
Details: both partners purified

B1: recombinant human PDGF-BB (platelet-derived growth factor-BB) (ligand, UniProt P01127 82-190, looked up)
chain: SLGSLTIAEPAMIAECKTRTEVFEISRRLIDRTNANFLVWPPCVEVQRCSGCCNNRNVQCRPTQVQLRPVQVRKIEIVRKKPIFKKATVTLEDHLACKCETVAAARPVT
notes: platelet-derived growth factor subunit B, human, recombinant PDGF-BB; also called rhPDGF-BB; source: bought: Peprotech (Cat# 100-14B)
B1 showed a Kd of 185 nM.
